The values that follow come from the supplement of paper PMC10567573.

The labels stand for the following.
B1: RAD51 (parent)
chain: RFLRMLLRLADEFGVAVVITNQVV
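Further: lentivirally expressed fusions sorted by FACS into six bins by GFP to DsRed ratio, PSI derived from sequencing read proportions per bin multiplied by bin number.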

Variants of B1 are the subject of this data set. Put plainly: protein stability index of a GFP-peptide fusion (GPS, HEK-293T) (PSI 1-6); higher = more stable. As to conditions: c terminus: a fixed tail appended.
RFLRMLLRLADEFGQAVVITNQVV [V15Q]: the protein stability index stood at 3.05.

RFLRMLLRLADEFGDAVVITNQVV [V15D]: the protein stability index was determined as 1.77.

With RFLRMLLRLADEFGRAVVITNQVV [V15R], the protein stability index turned out to be 2.32.

Consider RFLRMLLRLADEFGPAVVITNQVV [V15P], for which the protein stability index is 3.13.

Take RFLRMLLRLADEFGHAVVITNQVV [V15H]: the protein stability index worked out at 2.6.

For the variant RFLRMLLRLADEFGAAVVITNQVV [V15A], the protein stability index was 1.79.

As for RFLRMLLRLADEFGCAVVITNQVV [V15C], the protein stability index turned out to be 3.16.

Turning to RFLRMLLRLADEFGIAVVITNQVV [V15I], the protein stability index was determined as 2.51.

For the variant RFLRMLLRLADEFGLAVVITNQVV [V15L], the protein stability index worked out at 2.06.

Turning to RFLRMLLRLADEFGKAVVITNQVV [V15K], the protein stability index stood at 2.75.

As for RFLRMLLRLADEFGYAVVITNQVV [V15Y], the protein stability index worked out at 1.8.

With RFLRMLLRLADEFGWAVVITNQVV [V15W], the protein stability index worked out at 2.43.

For RFLRMLLRLADEFGFAVVITNQVV [V15F], the protein stability index was determined as 2.82.

With RFLRMLLRLADEFGSAVVITNQVV [V15S], the protein stability index stood at 3.16.

In the case of RFLRMLLRLADEFGGAVVITNQVV [V15G], the protein stability index was 1.98.

On to RFLRMLLRLADEFGNAVVITNQVV [V15N], for which the protein stability index amounted to 2.31.

RFLRMLLRLADEFGEAVVITNQVV [V15E]: the protein stability index was 2.08.

RFLRMLLRLADEFGMAVVITNQVV [V15M]: the protein stability index stood at 1.56.

For the variant RFLRMLLRLADEKGVAVVITNQVV [F13K], the protein stability index was found to be 2.2.

Consider RFLRMLLRLADEQGVAVVITNQVV [F13Q], for which the protein stability index is 1.61.

Turning to RFLRMLLRLADEWGVAVVITNQVV [F13W], the protein stability index was 3.5.

On to RFLRMLLRLADEMGVAVVITNQVV [F13M], for which the protein stability index was 2.21.

For the variant RFLRMLLRLADEDGVAVVITNQVV [F13D], the protein stability index worked out at 3.29.

As for RFLRMLLRLADETGVAVVITNQVV [F13T], the protein stability index was 1.97.

For RFLRMLLRLADEGGVAVVITNQVV [F13G], the protein stability index was 2.04.

RFLRMLLRLADEYGVAVVITNQVV [F13Y]: the protein stability index was found to be 1.72.

Consider RFLRMLLRLADEAGVAVVITNQVV [F13A], for which the protein stability index stood at 1.3.

As for RFLRMLLRLADERGVAVVITNQVV [F13R], the protein stability index turned out to be 2.34.

On to RFLRMLLRLADEHGVAVVITNQVV [F13H], for which the protein stability index worked out at 1.86.

Regarding RFLRMLLRLADEEGVAVVITNQVV [F13E], the protein stability index worked out at 2.74.

In the case of RFLRMLLRLADESGVAVVITNQVV [F13S], the protein stability index worked out at 1.59.

RFLRMLLRLADELGVAVVITNQVV [F13L]: the protein stability index was 2.56.

In the case of RFLRMLLRLADENGVAVVITNQVV [F13N], the protein stability index worked out at 1.26.

As to RFLRMLLRLADEPGVAVVITNQVV [F13P], the protein stability index came out at 1.25.

For the variant RFLRMLLRLADLFGVAVVITNQVV [E12L], the protein stability index is 2.75.

As for RFLRMLLRLADSFGVAVVITNQVV [E12S], the protein stability index amounted to 2.08.

Turning to RFLRMLLRLADNFGVAVVITNQVV [E12N], the protein stability index is 1.68.

For the variant RFLRMLLRLADQFGVAVVITNQVV [E12Q], the protein stability index turned out to be 3.13.

For the variant RFLRMLLRLADTFGVAVVITNQVV [E12T], the protein stability index came to 1.46.

Turning to RFLRMLLRLADRFGVAVVITNQVV [E12R], the protein stability index is 3.5.

Regarding RFLRMLLRLADPFGVAVVITNQVV [E12P], the protein stability index was determined as 2.01.

In the case of RFLRMLLRLADVFGVAVVITNQVV [E12V], the protein stability index turned out to be 1.94.

For the variant RFLRMLLRLADMFGVAVVITNQVV [E12M], the protein stability index turned out to be 2.33.

With RFLRMLLRLADEFGVVVVITNQVV [A16V], the protein stability index was 1.34.

Turning to RFLRMLLRLADEFGVMVVITNQVV [A16M], the protein stability index was 3.12.

Regarding RFLRMLLRLADEFGVHVVITNQVV [A16H], the protein stability index is 3.12.

Consider RFLRMLLRLADEFGVSVVITNQVV [A16S], for which the protein stability index worked out at 2.34.

Regarding RFLRMLLRLADEFGVTVVITNQVV [A16T], the protein stability index stood at 1.79.

As to RFLRMLLRLADEFGVLVVITNQVV [A16L], the protein stability index turned out to be 2.2.

RFLRMLLRLADEFGVIVVITNQVV [A16I]: the protein stability index is 2.24.

As to RFLRMLLRLADEFGVPVVITNQVV [A16P], the protein stability index worked out at 1.08.

Regarding RFLRMLLRLADEFGVYVVITNQVV [A16Y], the protein stability index was determined as 1.93.

In the case of RFLRMLLRLADEFGVNVVITNQVV [A16N], the protein stability index stood at 3.11.

Turning to RFLRMLLRLADEFGVKVVITNQVV [A16K], the protein stability index amounted to 2.4.

Take RFLRMLLRLADEFGVDVVITNQVV [A16D]: the protein stability index was 3.29.

Consider RFLRMLLRLADEFGVQVVITNQVV [A16Q], for which the protein stability index was 1.87.

As to RFLRMLLRLADEFGVFVVITNQVV [A16F], the protein stability index worked out at 1.55.

Regarding RFLRMLLRLADEFGVWVVITNQVV [A16W], the protein stability index was 2.44.

With RFLRMLLRLADEFGVCVVITNQVV [A16C], the protein stability index was 1.43.

As to RFLRMLLRLADEFGVRVVITNQVV [A16R], the protein stability index amounted to 2.25.

Turning to RFLRMLLRLADEFGVAEVITNQVV [V17E], the protein stability index worked out at 2.58.

With RFLRMLLRLADEFGVADVITNQVV [V17D], the protein stability index turned out to be 2.06.

Consider RFLRMLLRLADEFGVASVITNQVV [V17S], for which the protein stability index is 1.36.

As to RFLRMLLRLADEFGVATVITNQVV [V17T], the protein stability index worked out at 2.11.

Regarding RFLRMLLRLADEFGVANVITNQVV [V17N], the protein stability index was found to be 2.35.

RFLRMLLRLADEFGVAAVITNQVV [V17A]: the protein stability index was 1.67.

Turning to RFLRMLLRLADEFGVAHVITNQVV [V17H], the protein stability index turned out to be 2.9.

As for RFLRMLLRLADEFGVAPVITNQVV [V17P], the protein stability index turned out to be 1.86.

In the case of RFLRMLLRLADEFGVAIVITNQVV [V17I], the protein stability index was 3.4.

For RFLRMLLRLADEFGVALVITNQVV [V17L], the protein stability index is 2.96.

As for RFLRMLLRLADEFGVARVITNQVV [V17R], the protein stability index stood at 1.52.

Consider RFLRMLLRLADEFGVACVITNQVV [V17C], for which the protein stability index is 1.06.

Regarding RFLRMLLRLADEFGVAFVITNQVV [V17F], the protein stability index stood at 2.19.

For RFLRMLLRLADEFGVAMVITNQVV [V17M], the protein stability index was 2.49.

As to RFLRMLLRLADEFGVAGVITNQVV [V17G], the protein stability index worked out at 3.41.

In the case of RFLRMLLRLADEFGVAKVITNQVV [V17K], the protein stability index amounted to 2.65.

As to RFLRMLLRLADEFGVAQVITNQVV [V17Q], the protein stability index is 1.25.

As to RFLRMLLRLADEFKVAVVITNQVV [G14K], the protein stability index was 1.96.

Regarding RFLRMLLRLADEFDVAVVITNQVV [G14D], the protein stability index turned out to be 2.97.

Consider RFLRMLLRLADEFEVAVVITNQVV [G14E], for which the protein stability index came to 1.92.

For the variant RFLRMLLRLADEFMVAVVITNQVV [G14M], the protein stability index was 1.74.

As for RFLRMLLRLADEFTVAVVITNQVV [G14T], the protein stability index came to 1.94.

For the variant RFLRMLLRLADEFFVAVVITNQVV [G14F], the protein stability index came out at 4.07.

As to RFLRMLLRLADEFRVAVVITNQVV [G14R], the protein stability index was 2.06.

Turning to RFLRMLLRLADEFVVAVVITNQVV [G14V], the protein stability index was found to be 2.18.

Consider RFLRMLLRLADEFNVAVVITNQVV [G14N], for which the protein stability index amounted to 2.03.

For the variant RFLRMLLRLADEFYVAVVITNQVV [G14Y], the protein stability index came out at 3.29.

On to RFLRMLLRLADEFQVAVVITNQVV [G14Q], for which the protein stability index came out at 1.69.

Turning to RFLRMLLRLADEFLVAVVITNQVV [G14L], the protein stability index was 3.4.

For RFLRMLLRLADEFHVAVVITNQVV [G14H], the protein stability index came to 1.82.

As for RFLRMLLRLADEFAVAVVITNQVV [G14A], the protein stability index stood at 2.83.

With RFLRMLLRLADEFPVAVVITNQVV [G14P], the protein stability index is 1.33.

In the case of RFLRMLLRLADEFSVAVVITNQVV [G14S], the protein stability index stood at 1.53.

With RFLRMLLRLADEFCVAVVITNQVV [G14C], the protein stability index stood at 2.4.
